Reference: patent publication US20090172832A1 (published 2009)

Molecular target: T1, R. rubrum RUBISCO LSU (RRrbcLSU, product of the RRrbcM gene) (Rhodospirillum rubrum, UniProt Q2RRP5 1-466)
T1 construct: The purified R. rubrum RUBISCO used as blot control is filed under this molecule too; also called R. rubrum RUBISCO protein; 55-kD RUBISCO-like protein
T1 sequence: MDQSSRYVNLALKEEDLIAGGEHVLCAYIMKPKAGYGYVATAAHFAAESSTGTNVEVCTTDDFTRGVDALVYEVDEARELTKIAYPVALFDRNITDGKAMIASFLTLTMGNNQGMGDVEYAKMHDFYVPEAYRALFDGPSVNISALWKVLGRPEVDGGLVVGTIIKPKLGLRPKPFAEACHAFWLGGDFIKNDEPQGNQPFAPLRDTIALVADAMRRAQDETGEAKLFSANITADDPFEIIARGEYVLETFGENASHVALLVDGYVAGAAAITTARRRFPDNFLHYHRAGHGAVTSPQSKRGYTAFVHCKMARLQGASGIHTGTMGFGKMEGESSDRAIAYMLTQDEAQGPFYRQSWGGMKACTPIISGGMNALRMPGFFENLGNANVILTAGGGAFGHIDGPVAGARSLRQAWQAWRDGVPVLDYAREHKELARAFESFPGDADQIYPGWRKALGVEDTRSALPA
Test: SDS-PAGE of crude leaf extract of plant 1074 (Coomassie stain); inferred because SSU did not accumulate

B1: endogenous tobacco RUBISCO small subunit (SSU) (enzyme, Nicotiana tabacum, UniProt P69249 58-180, looked up)
chain: MQVWPPINKKKYETLSYLPDLSQEQLLSEVEYLLKNGWVPCLEFETEHGFVYRENNKSPGYYDGRYWTMWKLPMFGCTDATQVLAEVEEAKKAYPQAWIRIIGFDNVRQVQCISFIAYKPEGY
notes: Endogenous protein in leaf extracts; also called endogenous SSU; tobacco SSU
Q: Does B1 bind?
A: no binding
